Assay results as given in the DeepSol protein solubility set.

Test: soluble on expression in E. coli; label from the status in PepcDB or PDB records

Row | Sequence | soluble on expression in E. coli
1 | MGSDKIHHHHHHMTLKSRIGILAGKTAHFFLSKIGRGSTLPGKIALKCDKDILDTLAKDYDIVVVTGTNGKTLTTALTVGILKEAYGQVLTNPSGANMITGITSTFLTAKKSRNGKKIAVLEIDEASLPKITDYLKPSLFVFTNIFRDQMDRYGEIYTTYQMILDGAAKAPKATILANGDSPLFNAKTVVNPVRYYGFDTKKEAAHLAHYNTEGIVCPKCEYILQYKLNTYANLGDYICPNCGFHRPHLDYSLTQLTKISNTQAEFIIDGQDYKINVGGLYNIYNALAAVAVAEFLGVTPEQIKAGFDKSRAVFGRQETFKIGDKSCTLVLIKNPVGASQALEMIKLAPYPFTLSVLLNANYADGIDTSWIWDANFESILDMNIPQIFTGGVRHSEIARRLRVTGYNETKIEQAEKLEDILSMIEKQEADHAYILATYTAMLEFRELLASRHAVRKEMH | not soluble
2 | MSLRTIKNLRDMIEQSSKLFANKDAFRVKTKDNSYRGITFAEFKNDIDAFGTALLDLLGTEKGFVAVIGENRYEWCVTYLATINGVGVVIPLDKELPLPELENLLKQSNANAIVYSGKFHDAIKEMSSRLSNIKYFINMNTNEHEDDKFLSFWVLLEKGKKLLESGKKDYLNAPIDENAMSAMIFTSGTTGQAKAVMLSHKNICSNMMAVSASVYMDSTDSVLSILPLHHTYECTAGFLTMIYNGATITFNEGLKYIGKNLKEAQPTILILVPLILESMYNKIWEQASKDKSLKFKLKAGLFISNLLYKVFKIDIRRKLFKSVIDNVGGKLRLVISGAAALDPEVAKGFEAMGIKVLQGYGLTEASPIVAVNRDKSYRHDSVGLPLPGLDVEIINPDKEGFGEIIVKGDSVMLGYYNNDDATKAVLKDGWLYTGDLGRMDEKGFIYITGRKKNIIVTKTGKNIFPEEVEAYLNKSPYIKESLVSGRENDKNDETIVVAQIVPDMDAIKAKLKTDTVPSPEEVYKLIKAEIRAINKNMPVYKRVVDITIRENEFAKTSSKKIKRYLEKTNEGHHHHHH | soluble
3 | MISVFDIFKVGIGPSSSHTVGPMKAAKQFVDELSEHKLLAKTDRLVADVYGSLSLTGRGHSTDIAIVMGLMGYLPDNVDIERIDSVIQQVKQEHKLVLAEANPAETKIIDFDFYNDMPFHSTFLARHENGMTLKAFAGETLLYEKTFYSIGGGFIVDDEHFEQ | not soluble
4 | GWAAGDYPVVTTDHLKAMIDEKRDFLLIDARTPEEYAEAHIVGAVNVPEKTFDSASAQLPADKAKLIVLYCNGIKCGKSKRVAKKVEPLGYTAIAVYNEGMPVWEERGLPIVKGAGYGRK | not soluble
5 | MGSDKIHHHHHHMNHIGTREIATERLTLRRFEIEDAENMFYNWANDPEVTKYLTWPAHESVDTTETILKEWISKYDEKDFYQWAIELNDLEQPIGTISAIKTDERVESVEIGYCIGKRFWNNGYMTEALTAIIRFFINEVGAGRIWARHDTENPNSGKVMVAAGMDYEGTLRHAGFNNQGICDEAVYAKVRSAALDEEPEEETPEQQAVTTKVMGEDGVMRNVISDETMEYVGILAKLELSPEEAEAAKKDMADMLDYIDKLEELDTSGIEPMSHVFPVNNVFRDDVVTNGDGSEATLANAPVKKDGGFKVPKTIGE | not soluble
6 | MKFAIIIPFYNAEKRLALSIDSIIKQTYSFLKHVEVLLINDGSTDRSSAIAHSYAEKYPSNIRVFDVPNGGPSKARNIGIHNVQEDTDFVGFLDADDLLSPNMLFSMVNFLEKSAVNMLVPAFYYLDDFGKKQKISPHKLNDRFTNGNRVVAIEKEPQAIHFYIGGTFFRFESLKQFVFDETLNFAEDQLLITKFLLENRSYGLIADAGYYYYRDLKQKGSLVSSAWKQPERYTPFLQKVYQTYLTNSKEIFGEVIPYVQYLIAYHAKLFFYKENIYFKEVLNEQEQEIFVRELQKILQEVGPEMIVALDTPLVVKEMMLSILRNGWPVQFKTAELEEVPLVTVKENYRPGKAVTVELLLEEARETLSDGGEFFASTSVGTAQTKVVKRKTAQTIWDIVVREEGTLEKVVTRLKPYQLKVQVFYQDKNQKITMTDLNVIKSVLGKLKRNKALKRKFKQGGVSLEHHHHHH | soluble
7 | MSLRPTMADVAREAGVSLSTVDRVLNLRADVRTDTAQRIAAAAALLGFHAKGVIEQRILNDKPTVRLGFLLQKSGVAFYKGLAQALSNAAATFTRARVQVVIGYLDDLDPATVAQRLLALGDQVDGVGMVAVDHPRVRDAVASLQVAGVPVVALISELAGLGSASYVGVDNRLMGRTAGWFVTRLAGSPGSAAVMVSSQRFQCQELCEMSFRSYLSSHSTDWELLASRLTLEDDDFAYGNALDLLSGEPELSALYVAGGGVAGVLRALRELQQQQIRLPVVVCHDLTPLTREALKADLVQVVLSHPIVQVAEQTVRALVAASSDLTRVARVTVPIQVDVSESIAEGHHHHHH | soluble
8 | MIDPVGLPDTFVRIVLVGSGNLATQTALALSEAASPPVQVWSRNAEHAERLASMLPGATATDRTEELLCDAELYLLAVSDHALESVAATLPPTSGIWAHTAGSMPMDTLRPYHAQIGVFYPLQTFSRERRVDYSSIPIYIEGNDESVVRLLESVARLISRNVLRCTSEQRLYLHLAAVFACNFTNHLYALSEQMLAAHGLPPRSLAPLIAETAAKVQEMSATEAQTGPAKRDDTNTLQKHLGLLNPYPDWQEIYRILSDSIRKMYGPKEQ | not soluble
9 | MIKRGFPAVLDENTEILILGSLPSDESIRKQQYYGNPGNDFWRLVGHAIGENLQDMAYEKKLKTLKHNRIGLWDVFKAGSREGSQDSKIGDEEINDFSGLKEMVPKLRLICFNGRKAGEYEPLLRGMGYETKVLPSSSGANRRFSKNRESEWEAVFRHLEHHHHHH | soluble
10 | MDITPALTEMELDHKPTCETVPGLPQKKHYRQRAHSNPHSDHDIEYPLTPNHMDWTKYYGDYTKGRQVDFADIGCGYGGLLMRLSPKYPDNLMIGMEIRVKVSDYVNEKIQALRKHHAEAGHYRNVAVLRSNAMKYMPNYFHKGQLSKMFFLFPDPHFKNKKHKWRIITPTLLSEYAYVLREGGIIYTITDVKDLHEWMVKHLSEHPLFERLTEEEMKKDPIVEMLFESTEEGQKVTRNDGGKWPAIFRRLPNPAL | not soluble
11 | MEASKDISRLIEIMEALRQPETGCPWDVVQTFETIKPYTIEEAYEVADAIERKDMDDLCDELGDLLLQVVFHARIAEERGEFTFGDVVHAVTSKMIRRHPHVFDVSDADTPDSVKLQWDQIKAEEKRERAERRARRGITEDFKAGFLGGVQRSQPALTEALKLQEQAARVGFDWSDPAPILDKIEEEIAELREALAEGKPEKVSDELGDLIFALVNIGRHVKADPEDALRGTNTKFRRRFNHIETSLSDNGETLKEASLERMEDLWQAAKRIERSLDTVSS | not soluble
12 | MTPDWFAVVDATWPAADSRTDGTLTLREGRGGGKRVSAASASGAVSEPQIEAAEAAMRQMGQPPLFQLRPGDEGLDAALAGRGYSIVDPVNIYACPVSQLTDLPMPRVTVFALWEPLAIMRELWAEGGIGPGRLAVMDRVKGPKTGLLMRHQDKPGGVAFVAIHDGVAMLHALEIPPHQRRKGLGKWAMRGAAFWALDNGAHTLSVICTKANEGANALYRSLGMQLVGEYHYRLLQEERQTA | not soluble
13 | GMREDMKDNVVKDKSLEFAVRIVNLYKFLVNEQKEFVMSKQILRSGTSIGANIREAEQAQSRADFINKLNIALKEANETEYWLELLIRTEYITREQYESINNDSTEINKLLISIIKTTKNN | soluble
14 | PTQSPSEFIAELARCAQPIAQANDLYASVMMAQAIVESGWGASTLSKAPNYNLFGIKGSYNGQSVYMDTWEYLNGKWLVKKEPFRKYPSYMESFQDNAHVLKTTSFQAGVYYYAGAWKSNTSSYRDATAWLTGRYATDPSYNAKLNNVITAYNL | not soluble
15 | MGSDKIHHHHHHMKNFVTSERSIFEMEKSTEPAIRVKDGSVVKIKTKDHFNGQIHAKQLHYGELDWKQFSPTTGPIYIEEARPGDLLAITIEKIELLGTEVFLLNGPNIGITDDLLTSNSTRCYKVENNQIIYSEDIHIPIRKTIGLLKTEELNPSKVPTKNGGLLDSSKITEGATIFLPVEKYGASLHVGNVRATTGFGKITATSAEAPAEVTLRLQILKNRTAPTPTIIHYHNLICLASDITIEKATQKTMHNMITLLTESDKMTTEDALFLISLQADFQVCKLCKPNITTSIKLPLDYFPEMPFL | not soluble
16 | MGHHHHHHSHMRDCCGMVSSGSLSSLKAAERTPGALFFSSSTPGRYYNYDSSSRPQSRSVMSDQCAGQWFLKACGLGEGDTEVFPTQHVVRALQTIFELNVQAFAGGAMGAVNGMQPHGVPDKSSVQSDEVWVGVVYGLAATMIQEVMHSFSHLSTICILAQKTSSTTKFLQGITQCHLVRL | not soluble
17 | MDIVDEKWEEYLKNLDEMSKSALLETFNIGASHAATALSEMTGKEVNISVPDLKIIAIKNVPEVVGEDVKVAVYIELGKDFSSHAFFIADYEDALRMFDIIMGNPLGTTKEMDEMVKSSFMEVGNILISAFANALSEFLGITIEQTPPSLAIDFLPAILDFALADIGKYCDYTIILQTNIKISDVKFEEHFLLFPKPEDMKKILEKLLGGFA | soluble
18 | SLNAFDELVFAPMYVTSVDGRQAGVFHAHKGRRLIAAHRKAGTTPFVGASRVNNSITGFADTPALFPGGWITLIYNGDGGTGHAKYQPAPFNASDDVIALEPISKQATEPALLLIASMLTLQCVPKFGFGYKLTLHRLDRQKIMIPVLTNADGEQVVNWSGLTRHGKRLLNEAKTRARAVRELTSTAKPKLPELNYMPMFITDVFESMNAAGKWFDFAKACLSGKPFAPYIARSGGGNGVGSFVPHQGFAPPNAGNAITIGVSTSTVFYQPVPFYTSKEIQVLRHHKLTADSGLILVALLREQMGKFQWGNGASLERLKATRIMVPAMVGADGEDVVDWDGLSRYGRALRARVELAINAVL | not soluble
19 | YSLAVGGSSPFAEELMQELALTTEQLQVRAQEVLTEILNDYSSLRVKTIDSFFQEVMRAFSHELGLPGGFRIEMEQKAVLEQAVVRLLHSLGEKDTSDVENWIRRLAEDLIEEGRGHNIRREIVSLGDELFKEQLLLLSEEGKLPTKAAIHRYQTEMNKLMEGFEQRRLSIARRAEEIVATAGISFYDFKGGTKGGILEFAKVLKGGEVKPPTKTFMAMAEGDPETTLYAKTTPATTQAAILSAYQSGLKECLTEMATLYLGREWQEYSTAKQSLPFLNRLGIISDLWRQIEGIRQEENKMLISDAPSLLHRIIDGSETPFVYDK | not soluble
20 | MSLTQIENSQYRKHKQKQQHLQHSLTGESKTAIVVFSRSGNTATLSEHIAHKTNGHVYEIFAKSYALGIPGWINALKDARSNVAEIVPQHIDLSSYDTVYLGSPIWLYSPAPPFWQFVKDNDLTNKRVILFNSFNSKFEQHFIDEFAALARAKGATSFEHQYVKRGRMGDQLSTDEMLAAFDHLNPNEGHHHHHH | soluble
21 | PFMFRPRKQVFQTQGAAVSSMAQTLLPNDLASKAMGSAFTALLDANEDAQKAMKIIKTLSSLSDAWENVKETLNNPEFWKQLLSRCVQLIAGMTIAVMHPDPLTLLCLGTLTAAEITSQTSLCEEIAAKFKTIFITPPPRFPTISLFQQQSPLKQVNDIFSLAKNLDWAVKTVEKVVDWFGTWIVQEEKEQTLDQLLQRFPEHAKRISDLRNGMAAYVECKESFDFFEKLYNQAVKEKRTGIAAVCEKFRQKHDHATARCEPVVIVLRGDAGQGKSLSSQVIAQAVSKTIFGRQSVYSLPPDSDFFDGYENQFAAIMDDLGQNPDGSDFTTFCQMVSTTNFLPNMASLERKGTPFTSQLVVATTNLPEFRPVTIAHYPAVERRITFDYSVSAGPVCSKTEAGYKVLDVERAFRPTGEAPLPCFQNNCLFLEKAGLQFRDNRTKEIISLVDVIERAVARIERKKKVLTTVQTLVAQ | not soluble
